# Results reported in paper doi:10.1101/585463.
# Experiments:
# [1] = target: fully glycosylated CmeA (g2CmeA) (Campylobacter jejuni) (UniProt Q0PBE3); assay: SPR
# [2] = target: non-glycosylated CmeA (g0CmeA), periplasmic fusion protein of the CmeABC multidrug efflux pump (Campylobacter jejuni) (UniProt Q0PBE3); assay: SPR
substance,measurement,setting,value
"CmeC, outer membrane associated channel of the CmeABC multidrug efflux pump (natural protein)",Kd,[1],5 nM
same,koff,[1],0.00075 s⁻¹
same,kon,[1],150000 M⁻¹ s⁻¹
same,Kd,[2],17 nM
same,koff,[2],0.0009 s⁻¹
same,kon,[2],50000 M⁻¹ s⁻¹
